Paper PMC4865107

How the values were obtained:
Topo IV [1] = experiment: EMSA; conditions: Topo IV alone; stated as bound poorly; 1 mM spermidine, 30 mM potassium glutamate, 10 mM DTT, 6 mM MgCl2, 10% glycerol, pH 7.4, 15 min at RT; 4% native PAGE (plasmid: 0.8% agarose, 0.5x TAE, 4 C)
[2] = test system: Topo IV;XerC;XerD (Escherichia coli?;Escherichia coli?;Escherichia coli?); experiment: EMSA (agarose); conditions: 50 nM XerCD; migration delay seen with 40 nM Topo IV; 1 mM spermidine, 30 mM potassium glutamate, 10 mM DTT, 6 mM MgCl2, 10% glycerol, pH 7.4, 15 min at RT; 4% native PAGE (plasmid: 0.8% agarose, 0.5x TAE, 4 C)
Topo IV [3] = experiment: EMSA (agarose); conditions: no XerCD; 200 nM Topo IV required for migration delay; 1 mM spermidine, 30 mM potassium glutamate, 10 mM DTT, 6 mM MgCl2, 10% glycerol, pH 7.4, 15 min at RT; 4% native PAGE (plasmid: 0.8% agarose, 0.5x TAE, 4 C)

## dif probe, 250 bp
Topo IV [1]
  Kd: > 100 nM

## negatively supercoiled plasmid containing dif
[2]
  binding: 40 nM
Topo IV [3]
  binding: 200 nM
